Measured values published in patent US20240156915A1.

Molecular target: exenatide (Gila monster) (UniProt P26349)
Sequence (P26349 48-86): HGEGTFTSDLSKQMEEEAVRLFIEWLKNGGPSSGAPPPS

Substance: pepsin (enzyme)
- Residual content of exenatide in percent (%): 0%
